Results as given in the supplement of paper PMC7877785.
± gives the uncertainty stated by the source.

Assay: self-splicing fitness, log relative to wild type (ln ratio); higher = more splicing; Tetrahymena group I intron in knt gene, E. coli kanamycin selection, DiMSum; sequences stand for … in CUCUCU…GGAGGGAAAAGUUAUCAGGCAUGCACCUGGUAGCUAGUCUUUAAACCAAUAGAUUGCAUCGGUUUAAAAGGCAAGACCGUCAAAUUGCGGGAAAGGGGUCAACAGCCGUUCAGUACCAAGUCUCAGGGGAAACUUUGAGAUGGCCUUGCAAAGGGUAUGGUAAUAAGCUGACGGACAUGGUCCUAACCACGCAGCCAAGUCCUAAGUCAACAGAUCUUCUGUUGAUAUGGAUGCAGUUCACAGACUAAAUGUCGGUCGGGGAAGAUGUAUUCUUCUCAUAAGAUAUAGUCGGACCUCUCCUUAAUGGGAGCUAGCGGAUGAAGUGAUGCAACACUGGAGCCGCUGGGAACUAAUUUGUAUGCGAAAGUAUAUUGAUUAGUUUUGGAGUACUCGUGGUCG
How it was run: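 Six replicate transformations of E. coli BL21(DE3) with a pET-22b(+) library were grown overnight at 37°C or 30°C. The library randomised all eight P1ex-region intron nucleotides, the intron lying in the knt kanamycin-resistance gene, and plates were LB agar with or without 25 μg/mL kanamycin plus 100 μg/mL carbenicillin, 50 μM IPTG and 0.2% rhamnose. Pooled colonies were amplicon-sequenced on an Illumina HiSeq 2500, and fitness is the DiMSum error-weighted combination of wild-type-normalised replicate fold changes, kanamycin versus none.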

Sequence	self-splicing fitness (ln) (30 °C)	self-splicing fitness (ln) (37 °C)
ACGGAGCAAUAUUACGUGUA	-3.72 ± 0.29	-3.03 ± 0.23
UUGAAGCAAUAUUACGAACA	0.602 ± 0.15	-0.488 ± 0.23
UCCGAGCAAUAUUACGCUCG	-3.71 ± 0.21	-3.08 ± 0.37
GGCAAGCAAUAUUACGCAUU	-0.374 ± 0.062	0.591 ± 0.081
AUCUAGCAAUAUUACGGGCU	-2.22 ± 0.16	-2.49 ± 0.23
AGCAAGCAAUAUUACGUAAG	-2.47 ± 0.097	-0.897 ± 0.12
GUCAAGCAAUAUUACGAUGA	-2.41 ± 0.17	-1.1 ± 0.11
GCGGAGCAAUAUUACGAUUU	-2.22 ± 0.14	-0.641 ± 0.14
UACCAGCAAUAUUACGUGCU	-4.3 ± 0.19	-2.93 ± 0.17
CGCAAGCAAUAUUACGCGGA	-2.93 ± 0.28	-2.41 ± 0.23
GAUAAGCAAUAUUACGCGUC	-4.66 ± 0.36	-2.53 ± 0.33
UUAUAGCAAUAUUACGUUUC	-4.48 ± 0.3	-3.31 ± 0.32
UUGCAGCAAUAUUACGCGUU	-2.41 ± 0.21	-1.94 ± 0.18
CGCAAGCAAUAUUACGACUU	–	-2.07 ± 0.25
ACAAAGCAAUAUUACGCACA	-0.593 ± 0.083	-0.0238 ± 0.099
UUGUAGCAAUAUUACGUCUG	-0.639 ± 0.067	0.19 ± 0.086
GAUGAGCAAUAUUACGUGAC	-3.05 ± 0.34	-2.3 ± 0.42
AGCAAGCAAUAUUACGCGAG	-3.61 ± 0.16	-2.87 ± 0.19
CUGAAGCAAUAUUACGCCAU	-3.41 ± 0.31	-2.52 ± 0.36
GCUGAGCAAUAUUACGCGUC	-1.94 ± 0.17	-0.941 ± 0.21
CCGCAGCAAUAUUACGAUAU	-4.2 ± 0.23	-2.76 ± 0.17
CGUAAGCAAUAUUACGAUUC	-3 ± 0.13	-2.52 ± 0.16
UCUUAGCAAUAUUACGUCCA	-1.92 ± 0.13	-1.93 ± 0.18
GUCUAGCAAUAUUACGUCGA	-2.12 ± 0.14	-0.957 ± 0.13
UUACAGCAAUAUUACGUGAA	-1.16 ± 0.054	-0.338 ± 0.066
GAUAAGCAAUAUUACGCCUU	-0.931 ± 0.1	-0.199 ± 0.14

Sequence	self-splicing fitness (ln) (30 °C)	self-splicing fitness (ln) (37 °C)
AACCAGCAAUAUUACGGUUA	-2.14 ± 0.099	-0.269 ± 0.084
UGUGAGCAAUAUUACGUGUA	-1.49 ± 0.29	-1.46 ± 0.28
AAAAAGCAAUAUUACGAGUC	-3.46 ± 0.22	-1.28 ± 0.19
GCGUAGCAAUAUUACGGUAA	-1.02 ± 0.13	-0.178 ± 0.1
UGUGAGCAAUAUUACGCCUC	-1.83 ± 0.41	–
CCAUAGCAAUAUUACGGGCA	-3.32 ± 0.26	-2.95 ± 0.29
CCGAAGCAAUAUUACGUAAA	-3.14 ± 0.22	-2.12 ± 0.33
CUAUAGCAAUAUUACGACAC	-2.95 ± 0.34	-1.88 ± 0.28
CCGUAGCAAUAUUACGUUAG	-2.22 ± 0.14	-0.971 ± 0.14
UUCCAGCAAUAUUACGGCCG	-2.49 ± 0.29	-0.492 ± 0.24
ACCUAGCAAUAUUACGCGUU	-2.76 ± 0.099	-0.77 ± 0.085
GUCGAGCAAUAUUACGCGUC	-1.43 ± 0.15	-2.49 ± 0.2
CCGUAGCAAUAUUACGUACC	-4.4 ± 0.29	-1.72 ± 0.34
UAGUAGCAAUAUUACGGUCU	-1.79 ± 0.17	-0.706 ± 0.13
UCUCAGCAAUAUUACGCACG	-2.2 ± 0.2	-2.06 ± 0.28
GAGCAGCAAUAUUACGUCAG	-3.23 ± 0.21	-2.12 ± 0.26
GCUCAGCAAUAUUACGACCG	-1.52 ± 0.17	-0.109 ± 0.17
UCGCAGCAAUAUUACGUAUA	-1.82 ± 0.11	-0.691 ± 0.12
CGUGAGCAAUAUUACGAAAG	-1.89 ± 0.17	-0.94 ± 0.16
CGCAAGCAAUAUUACGAACA	-0.432 ± 0.1	0.252 ± 0.1
CACUAGCAAUAUUACGCAAG	-2.39 ± 0.098	-1.43 ± 0.12
AGUGAGCAAUAUUACGCGAA	-2.36 ± 0.32	-1.56 ± 0.29
UACUAGCAAUAUUACGCUGU	-4.54 ± 0.28	-3.27 ± 0.33
GCUAAGCAAUAUUACGCAUG	-2.51 ± 0.16	-2.09 ± 0.15
ACGCAGCAAUAUUACGCAGG	–	-1.05 ± 0.15
AUACAGCAAUAUUACGUUGU	-2.77 ± 0.098	-2.81 ± 0.13

Sequence	self-splicing fitness (ln) (30 °C)	self-splicing fitness (ln) (37 °C)
GGGCAGCAAUAUUACGUCUC	-2.15 ± 0.23	-1.41 ± 0.15
AAGUAGCAAUAUUACGCUGU	-3.66 ± 0.25	-1.87 ± 0.14
AGUGAGCAAUAUUACGGAAG	-2.58 ± 0.25	–
ACGGAGCAAUAUUACGGGAA	-4.37 ± 0.36	-2.03 ± 0.31
GUGUAGCAAUAUUACGGGCG	-2.61 ± 0.27	-1.21 ± 0.18
GUAAAGCAAUAUUACGAGAU	-2.12 ± 0.12	-1.99 ± 0.15
ACAGAGCAAUAUUACGGUCG	-2.29 ± 0.11	-1.36 ± 0.16
GGGGAGCAAUAUUACGGUCA	–	-0.676 ± 0.18
UAGAAGCAAUAUUACGUAUC	-3.43 ± 0.28	-2.01 ± 0.15
CUGGAGCAAUAUUACGUCUC	-2.68 ± 0.33	-1.16 ± 0.36
GGCCAGCAAUAUUACGUCAA	-1.34 ± 0.31	-2.61 ± 0.35
UCGUAGCAAUAUUACGGCAG	-2.75 ± 0.13	-2.07 ± 0.15
GUUUAGCAAUAUUACGACCA	-1.56 ± 0.35	-0.943 ± 0.35
AUUUAGCAAUAUUACGUCGC	-3.64 ± 0.26	-2.2 ± 0.21
ACUAAGCAAUAUUACGUCUC	-2.79 ± 0.16	-0.208 ± 0.14
CCCAAGCAAUAUUACGCUAG	-2.63 ± 0.19	-2.72 ± 0.31
UAGUAGCAAUAUUACGUUUA	-1.48 ± 0.16	-1.22 ± 0.14
GCACAGCAAUAUUACGUGAU	-0.331 ± 0.029	0.114 ± 0.044
UAGGAGCAAUAUUACGAUCA	-1.02 ± 0.2	-0.542 ± 0.28
GUCCAGCAAUAUUACGCGCG	-1.58 ± 0.093	-0.665 ± 0.096
AAUGAGCAAUAUUACGAGUC	-4.32 ± 0.46	-3.08 ± 0.47
UUGGAGCAAUAUUACGCCGG	–	-1.08 ± 0.34
CCGAAGCAAUAUUACGUCAG	-1.47 ± 0.071	-0.198 ± 0.11
GGUGAGCAAUAUUACGAUUG	-3.77 ± 0.39	-1.79 ± 0.4
UUGUAGCAAUAUUACGGUUG	-2.38 ± 0.12	-0.9 ± 0.12
